The text below walks through data of article PMC2868174.

The target in this assay is ERK2 (UniProt P63086). Kind of assay: steady-state kinetics, forward and reverse reaction. Particulars: reference: unphosphorylated Ets; sites T38.

Regarding “Ets-1 (Ets; residues 1–138) 1-138 (from UniProt P27577) p-Ets (ERK2-phosphorylated, Mono-Q purified)”, the “other: Km” value is recorded as “same; reference 18.0 ± 2.0”.
